Measured values from article doi:10.1101/749432.

Biological target: endothelial protein C receptor (EPCR), residues 16 to 210, biotinylated on the BAP tag (human) (UniProt Q9UNN8)
Experiment: SPR

endothelial protein C receptor (EPCR), residues 16 to 210, biotinylated on the BAP tag (human), sequence (Q9UNN8 16-210): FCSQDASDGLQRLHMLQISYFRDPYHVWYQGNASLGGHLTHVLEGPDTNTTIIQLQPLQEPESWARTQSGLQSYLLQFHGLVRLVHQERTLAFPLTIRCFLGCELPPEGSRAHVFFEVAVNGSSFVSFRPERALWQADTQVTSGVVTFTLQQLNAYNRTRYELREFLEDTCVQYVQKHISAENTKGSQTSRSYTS

HB3var03 CIDRα1.4 domain D576A K642A double mutant (domain or fragment)
Kd: 220 nM
